In PMC3436581:

Molecular target: Cu^2+-catalyzed oxidized PrP(23–231) (mild condition) (mouse) (UniProt P04925)
Assay: SEC

In the case of “Cu^2+-catalyzed oxidized PrP(23–231) (mild condition) (from UniProt P04925 23-231) (natural protein)”, the percent of total protein in the tetramer band is reported as under 5% and the stoichiometry N is reported as 4.
